Reference: patent US6143719A, “Bradykinin analogs as selective thrombin inhibitors” (The Regents of the University of Michigan, priority 1996, dated 2000)

Legend:
[1] = water solubility of synthesized peptides; format: physicochemical
human platelets = format: cell-based; settings: FIG. 2, concentration not given
Description: The cytoplasmic free Ca^2+ concentration ([Ca^2+ ]i) was measured using the fluorescent Ca^2 + indicator fura-2 (Molecular Probes, Inc., Eugene, Oreg.). Gel filtered platelets in Hepes-Tyrode's buffer were loaded with fura-2 by incubation at 37° C. with 1 μM fura-2/acetoxymethyl ester for 45 min according to the method of Rasmussen et al., J. Biol. Chem. 268, 14322 (1993). The labeled platelets were then re-gel filtered to remove any excess probe. Aliquots of the labeled platelet suspension were transferred into a quartz cuvette with a magnetic stirrer, which was then placed in a thermostatically controlled chamber at 37° C. in a fluorescence spectrophotometer (Dual Wave Length Shimazdu SP5000 Spectrofluorometer, Shimazdu USA, Pittsburgh, Pa.). Reagents were directly added to the cuvette. The excitation wave lengths varied between 340 and 380 nm. The fluorescence was measured by recording emitted light at 510 nm as reported by Fisher et al, Mol. Pharm. 35, 195 (1989). The minimum emission was determined on a 20 mM digitonin, 10 mM EGTA solubilized platelet sample; maximum emission was determined on the same sample with 10 mM Ca^2+ added. The intraplatelet free Ca^2+ concentration was calculated by the method of Grykiewicz et al., J. Biol. Chem. 260, 3440 (1985). The ratio of the fluorescence readings was calculated as R=340/380 nm and processed according to the equation [Ca^2+ ]i =KD ((R-Rmin)/Rmax -R))(Sf2 /Sb2) to determine the intraplatelet free Ca^2+ concentration. The KD for fura-2 was assumed to be 224 nM. Rmax and Rmin are the maximum and minimum fluorescence ratios measured at the end of the experiment, respectively; Sf2 and Sb2 are the fluorescence values at 380 nm in the absence and presence of saturating [Ca^2+ ], respectively.

washed platelets = assay: 125I-α-thrombin binding to platelets; design: species or system human; settings: 200 nM HK
Description: Gel filtered platelets were placed into polypropylene tubes and diluted with Hepes-Tyrode's buffer, containing 2 mM CaCl2 and 50 μM ZnCl2 and additions, to a final concentration of 2×10^8 platelets/ml. The reaction was started by the addition of 1 nM ^125 I-α-thrombin, which was prepared by using the iodogen technique as reported by Meloni et al., J. Biol. Chem. 266, 6786 (1991). Incubations were performed at 37° C. for specified times with various additions. After incubation, 50 μl aliquots were removed in triplicate for each experimental point and placed in polypropylene microcentrifuge tubes with an extended tip containing 200 μl of an oil mixture which consisted of 1 part Apiezon A oil to 9 parts of n-butylphthalate (Gustafson et al., J. Clin. Invest. 78, 810 (1986)), and centrifuged at room temperature for 2 min at 10,900× g in a microcentrifuge. (Model E, Beckman Instruments, Palo Alto, Calif.) The supernatant was removed and the tips amputated for placement in the gamma counter. The radioactivity present in the cell pellet was determined with an LKB Rack Gamma Counter (LKB Instruments, Inc., Gaithersburg, Md.). Nonspecific binding was measured in the presence of a 100-fold molar excess of α-thrombin.

α-thrombin = α-thrombin (Homo sapiens, UniProt P00734); assay: α-thrombin cleavage of thrombin receptor peptide NAT12 (HPLC); format: biochemical; design: cleavage product peak 3, share of NAT12 peak 1 area / cleavage product peak 2, share of NAT12 peak 1 area: dose or concentration left out as unconfirmed
Description: A further study was performed to determine whether BK analogs prevent α-thrombin from cleaving the thrombin receptor reported by Vu et al., Cell 64, 1057 (1991). A peptide, NAT12 (SEQ ID NO:2), which spans amino acids […] of the α-thrombin cleavage site on the thrombin receptor, was used to determine whether the BK analogs described herein blocked α-thrombin cleavage of the cloned receptor.
The cleavage study was performed according to the method of Molino et al., J. Biol. Chem. 270,11168(1995),inwhichNAT12(SEQ ID NO:2) was dissolved in a solution of 0.01 M NaH2 PO4 and 0.15 M NaCl, pH 7.4. […] Following incubation, each mixture was separated by applying the mixture to a Vyadec C-18 HPLC column in 0.1% trifluoroacetic acid and eluting the mixture with a gradient from 0% to 100% of 80% MeCN and 0.1% trifluoroacetic acid. The size of the separated products were confirmed by mass spectrometry.

[2] = procoagulant activity of purified HK; design: species or system human; settings: HK purified from plasma
Description: HK was purified from plasma by a modification of the procedures of Johnson et al., Thromb. Res. 48, 187 (1987) and Muller-Esterl et al., Methods Enzymol 163, 240 (1987). One hundred ml of 1 mM DFP-treated fresh frozen plasma was thawed at 37° C., to which 10 mM benzamidine-HCI, 40 μg/ml Polybrene, 2 mM EDTA, 0.2 mM PMSF, 0.2 mg/ml soybean trypsin inhibitor, 100 U/ml aprotinin and 2 M NaCl were added according to the method of Schmaier et al., Methods in Enzymology 169, 276 (1989). The treated plasma was then applied to a 2.5×20 cm column of CM-papain-SEPHAROSE 4B equilibrated in 50 mM phosphate buffer containing 2 M NaCl, 1 mM benzamidine-HCl, 40 μg/mL Polybrene, 0.2 mM PMSF, 0.02% (w/v) NaN3, pH 7.5. The CM-papain-SEPHAROSE 4B column was prepared by the procedure of Johnson et al., Thromb Res. 48, 187 (1987). HK and LK were eluted in a single peak after the addition of a 50 mM phosphate buffer solution containing 2 mM EDTA and 0.02% (w/v) NaN3, pH 11.5. Five ml fractions were collected into tubes containing 0.25 ml of a solution consisting of 4 mM PMSF in 1 M sodium acetate, pH 4.2 to bring the final pH to 6.0. The fractions containing HK and LK were then applied to a reactive Blue-Sepharose column (Sigma Chemical Corp, St. Louis, Mo.) equilibrated with 0.01 M sodium acetate pH 6.8 by the methods reported by Hasan et al., J. Biol. Chem. 269, 31822 (1994). […]

Row | Molecule | water solubility [1] | inhibition of α-thrombin-induced calcium mobilization (human platelets) | inhibition of 125I-α-thrombin binding to platelets (washed platelets) | cleavage product peak 2, share of NAT12 peak 1 area (α-thrombin) [%] | cleavage product peak 3, share of NAT12 peak 1 area (α-thrombin) [%] | reduction of NAT12 peak 1 area after α-thrombin (α-thrombin; 8 nM α-thrombin) [%] | specific activity (procoagulant activity) [2]
1 | SEQ ID NO:15: synthesized hydrophobic peptide, sequence not printed (NATFYFKIDNVKKARVQVVAGKKYFI) | hydrophobic requiring 0.01% DMSO in order to solubilize it | – | – | – | – | – | –
2 | HK: human high molecular weight kininogen purified from plasma (protein, UniProt P01042 19-644, looked up, high molecular weight kininogen) Kininogen-1: QESQSEEIDCNDKDLFKAVDAALKKYNSQNQSNNQFVLYRITEATKTVGSDTFYSFKYEIKEGDCPVQSGKTWQDCEYKDAAKAATGECTATVGKRSSTKFSVATQTCQITPAEGPVVTAQYDCLGCVHPISTQSPDLEPILRHGIQYFNNNTQHSSLFMLNEVKRAQRQVVAGLNFRITYSIVQTNCSKENFLFLTPDCKSLWNGDTGECTDNAYIDIQLRIASFSQNCDIYPGKDFVQPPTKICVGCPRDIPTNSPELEETLTHTITKLNAENNATFYFKIDNVKKARVQVVAGKKYFIDFVARETTCSKESNEELTESCETKKLGQSLDCNAEVYVVPWEKKIYPTVNCQPLGMISLMKRPPGFSPFRSSRIGEIKEETTVSPPHTSMAPAQDEERDSGKEQGHTRRHDWGHEKQRKHNLGHGHKHERDQGHGHQRGHGLGHGHEQQHGLGHGHKFKLDDDLEHQGGHVLDHGHKHKHGHGHGKHKNKGKKNGKHNGWKTEHLASSSEDSTTPSAQTQEKTEGPTPIPSLAKPGVTVTFSDFQDSDLIATMMPPISPAPIQSDDDWIPDIQIDPNGLSFNPISDFPDTTSPKCPGRPWKSVSEINPTTQMKESYYFDLTDGLS | – | inhibited | able to inhibit | 14 | 18 | 32 | 11-22 U/mg
